Consider four substances from paper PMC8525636.

In assay [1] the target is recombinant human IgA1-Fc CH2-CH3-TP, C471S mutant. Kind of assay: SEC (size-exclusion chromatography), self-association into poly-hu-rIgA. Conditions: parent: est. 9.0; read off a plot. For orientation: SEC sorts molecules by how far they enter the pores of the column.
Assay [2] deals with recombinant rat IgA-Fc segment CH2-CH3-TP, C311S mutant. Kind of assay: SEC (size-exclusion chromatography), self-association into poly-rIgA. Particulars: parent: est. 32; read off a plot.
Assay [3] concerns the target recombinant rat IgA-Fc segment CH2-CH3-TP, C311/471S double mutant. Described as above. Particulars: parent: est. 32; read off a plot.
The target in assay [4] is recombinant rat IgA-Fc segment CH2-CH3-TP, C471S mutant. Described as above. Particulars: parent: est. 32; read off a plot.

On to “recombinant human IgA1-Fc CH2-CH3-TP, wild type (human rIgA1-Fc) C471S”, for which the other: Distribution (%), poly-hu-rIgA share of SEC AUC in assay [1] came to 4%.

As for “recombinant rat IgA-Fc segment CH2-CH3-TP, wild type (rat rIgA) C311S”, the other: Distribution (%), poly-rIgA share of SEC AUC in assay [2] worked out at 28%.

As to “recombinant rat IgA-Fc segment CH2-CH3-TP, wild type (rat rIgA) C311S; C471S”, the other: Distribution (%), poly-rIgA share of SEC AUC in assay [3] was 1.5%.

As for “recombinant rat IgA-Fc segment CH2-CH3-TP, wild type (rat rIgA) C471S”, the other: Distribution (%), poly-rIgA share of SEC AUC in assay [4] turned out to be 2.5%.
